For 16 molecules, Kd results are on record in patent US20240182556A1 (OPSIDIO, published 2024).

Like-named read-outs stand apart in the source and are kept apart here.

For assay [1], the target named is T1, PE9413, C-terminal biotinylated peptide mapping on Exon6 of the SCF molecule (SCF248) (C-terminal biotin).
T1 construct: also called C-terminal biotinylated PE9413; C-ter PE9413
T1 peptide: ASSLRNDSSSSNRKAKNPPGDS
As to the kind of experiment: yeast-displayed scFv, flow cytometry titration of biotinylated peptide. Here is the method: The binding of the selected 48 clones described above to 170 nM of C-terminal biotinylated PE9413 was evaluated. The 24 clones with the highest binding signal were further evaluated for binding affinity. Each clone was incubated with increasing amounts of biotinylated PE9413, and stained with a fluorescently labeled anti-streptavidin antibody. Binding of the clone to PE9413 was analyzed by flow cytometry. A plot of concentration of PE9413 versus the median fluorescent signal of the yeast cell population that bound to PE9413 was used to estimate the binding affinity (KD) of each clone to C-terminal biotinylated PE9413. […]

In assay [2] the target is T1, PE9413, C-terminal biotinylated peptide …. The assay is described as above. How it is done:
The binding of the selected 48 clones described above to 170 nM of C-terminal biotinylated PE9413 was evaluated. The 24 clones with the highest binding signal were further evaluated for binding affinity. Each clone was incubated with increasing amounts of biotinylated PE9413, and stained with a fluorescently labeled anti-streptavidin antibody. Binding of the clone to PE9413 was analyzed by flow cytometry. A plot of concentration of PE9413 versus the median fluorescent signal of the yeast cell population that bound to PE9413 was used to estimate the binding affinity (KD) of each clone to C-terminal biotinylated PE9413.

In assay [3] the target is T2, N-terminal biotinylated PE9413 (not fully specified; N-terminal biotin).
T2 construct: also called PE9411; N-ter PE9413
T2 peptide: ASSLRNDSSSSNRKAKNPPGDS
The assay is described as follows: yeast-displayed scFv, flow cytometry titration of N-terminal biotinylated peptide. How it is done: The affinity of the 12 best clones for the N-terminal biotinylated target peptide […] was also evaluated. Each clone was incubated with increasing amounts of N-terminal biotinylated PE9413, and stained with a fluorescently labeled anti-streptavidin antibody. Binding of the clone to N-terminal biotinylated PE9413 was analyzed by flow cytometry. A plot of concentration of PE9413 versus the median fluorescent signal of the yeast cell population that bound to PE9413 was used to estimate the binding affinity (KD) of each clone to N-terminal biotinylated PE9413. The tested clones were confirmed to have improved affinities over the parental antibody 5H10 against the target sequence PE9413, regardless of the biotinylation modification, as reported in Table A3 and FIG. 12.

B1: A64P scFv displayed on yeast (scFv, V domains shown)
VH: QVQLVQSGAELKKPGSSVKISCKSSGYAFSSNWMNWVKQRPGQGLEWIGQIYPEDGDTHYNGKFKGKATLTADKSTSTAYMELSSLTSEDSAVYFCSSSNWVGSYWGQGTLVTVSS
VL: DVVMTQSPLSLPVTLGQPASISCKSSQSLLEEDGNTYLNWLQQRPGQSPRRLIYLVNRLDDGVPDRFSGSGSGTDFTLKISRVEAEDVGVYYCWQGTDLPQTFGGGTKVEIK
notes: Aga2-anchored, VH-VL orientation; not shown: linker; SV5 tag
B1: the dissociation constant (Kd) in assay [1] is 3.29 nM; in assay [2], 3.29 nM; in assay [3], 5.23 nM.

B2: D14P scFv displayed on yeast (scFv, V domains shown)
VH: QVQLVQSGAELKKPGSSVKISCKSSGYAFSSQWMNWVKQRPGQGLEWIGQIYPGDDDTHYNDKFKGKATLTADKSTSTAYMELSSLTSEDSAVYFCSSSNWVGSYWGQGTLVTVSS
VL: DVVMTQSPLSLPVTLGQPASISCKSSQSLLESDGNTYLNWLQQRPGQSPRRLIYLVDRLDLGVPDRFSGSGSGTDFTLKISRVEAEDVGVYYCWQGTDLPQTFGGGTKVEIK
notes: as for B1
On to B2, for which the results for the Kd in assay [1], in assay [2] and in assay [3] were 4.39 nM, 4.39 nM and 5.38 nM, respectively.

B3: F64P scFv displayed on yeast (scFv, V domains shown)
VH: QVQLVQSGAELKKPGSSVKISCKSSGYAFSSYYMNWVKQRPGQGLEWIGQIYPGDGDTHMNGKFKGKATLTADKSTSTAYMELSSLTSEDSAVYFCSSSNWVGSYWGQGTLVTVSS
VL: DVVMTQSPLSLPVTLGQPASISCKSSQSLLESDGNTYLNWLQQRPGQSPRRLIYLVDRLDSGVPDRFSGSGSGTDFTLKISRVEAEDVGVYYCWQGTDLPQTFGGGTKVEIK
notes: as for B1
B3: in assay [2], the dissociation constant Kd stood at 6.69 nM.

B4: D44P scFv displayed on yeast (scFv, V domains shown)
VH: QVQLVQSGAELKKPGSSVKISCKSSGYAFSSQWMNWVKQRPGQGLEWIGQIYPEDGDIHYNGKFKGKATLTADKSTSTAYMELSSLTSEDSAVYFCSSSNWVGSYWGQGTLVTVSS
VL: DVVMTQSPLSLPVTLGQPASISCKSSQSLLEEDGNTYLNWLQQRPGQSPRRLIYLVDRLDSGVPDRFSGSGSGTDFTLKISRVEAEDVGVYYCWQGSHLPQTFGGGTKVEIK
notes: as for B1
As for B4, the results for the Kd in assay [1], in assay [2] and in assay [3] were 4.18 nM, 4.18 nM and 4.61 nM, respectively.

B5: A104P scFv displayed on yeast (scFv, V domains shown)
VH: QVQLVQSGAELKKPGSSVKISCKSSGYAFSSQWMNWVKQRPGQGLEWIGQIYPEDGDTHYNGKFKGKATLTADKSTSTAYMELSSLTSEDSAVYFCSSSNWVGSYWGQGTLVTVSS
VL: DVVMTQSPLSLPVTLGQPASISCKSSQSLLEEDGNTYLNWLQQRPGQSPRRLIYLVDRLDSGVPDRFSGSGSGTDFTLKISRVEAEDVGVYYCWQGTDLPQTFGGGTKVEIK
notes: as for B1
Turning to B5, the equilibrium dissociation constant (Kd) in assay [1] was determined as 3.64 nM; in assay [2], 3.64 nM; in assay [3] it was 5.85 nM.

B6: B124P scFv displayed on yeast (scFv, V domains shown)
VH: QVQLVQSGAELKKPGSSVKISCKSSGYAFSSNWMNWVKQRPGQGLEWIGQIYPEDGDTHYNDKFKGKATLTADKSTSTAYMELSSLTSEDSAVYFCSSSNWVGSYWGQGTLVTVSS
VL: DVVMTQSPLSLPVTLGQPASISCKSSQSLLEQDGNTYLNWLQQRPGQSPRRLIYLVDRLDSGVPDRFSGSGSGTDFTLKISRVEAEDVGVYYCWQGTDLPQTFGGGTKVEIK
notes: as for B1
Regarding B6, the Kd in assay [1] came out at 3.82 nM; in assay [2] it was 3.82 nM; in assay [3], 5 nM.

B7: D113P scFv displayed on yeast (scFv, V domains shown)
VH: QVQLVQSGAELKKPGSSVKISCKSSGYAFSSQWMNWVKQRPGQGLEWIGQIYPGDGDTHMNGKFKGKATLTADKSTSTAYMELSSLTSEDSAVYFCSSSNWVGSYWGQGTLVTVSS
VL: DVVMTQSPLSLPVTLGQPASISCKSSQSLLEGDGNTYLNWLQQRPGQSPRRLIYLVDRLDIGVPDRFSGSGSGTDFTLKISRVEAEDVGVYYCWQGTDLPQTFGGGTKVEIK
notes: as for B1
In assay [2], B7 yielded a Kd of 8.07 nM.

B8: G104P scFv displayed on yeast (scFv, V domains shown)
VH: QVQLVQSGAELKKPGSSVKISCKSSGYAFSSQWMNWVKQRPGQGLEWIGQIYPGDGDTHMNGKFKGKATLTADKSTSTAYMELSSLTSEDSAVYFCSSSNWVGSYWGQGTLVTVSS
VL: DVVMTQSPLSLPVTLGQPASISCKSSQSLLEEDGNTYLNWLQQRPGQSPRRLIYLVDRLDDGVPDRFSGSGSGTDFTLKISRVEAEDVGVYYCWQGTDLPQTFGGGTKVEIK
notes: as for B1
Take B8: binding in assay [2] was put at a Kd of 7.09 nM.

B9: A84P scFv displayed on yeast (scFv, V domains shown)
VH: QVQLVQSGAELKKPGSSVKISCKSSGYAFSSQWMNWVKQRPGQGLEWIGQIYPEDGDTHMNGKFKGKATLTADKSTSTAYMELSSLTSEDSAVYFCSSSNWVGSYWGQGTLVTVSS
VL: DVVMTQSPLSLPVTLGQPASISCKSSQSLLEEDGNTYLNWLQQRPGQSPRRLIYLVDRLDIGVPDRFSGSGSGTDFTLKISRVEAEDVGVYYCWQGTDLPQTFGGGTKVEIK
notes: as for B1
Regarding B9, the equilibrium dissociation constant (Kd) in assay [1] amounted to 2.52 nM; in assay [2], 2.52 nM; in assay [3] it was 3.93 nM.

B10: E94P scFv displayed on yeast (scFv, V domains shown)
VH: QVQLVQSGAELKKPGSSVKISCKSSGYAFSSQWMNWVKQRPGQGLEWIGQIYPGDGDTHMNGKFKGKATLTADKSTSTAYMELSSLTSEDSAVYFCSSSNWVGSYWGQGTLVTVSS
VL: DVVMTQSPLSLPVTLGQPASISCKSSQSLLEEDGNTYLNWLQQRPGQSPRRLIYLVDRLDSGVPDRFSGSGSGTDFTLKISRVEAEDVGVYYCWQGTDLPQTFGGGTKVEIK
notes: as for B1
Molecule B10 displayed a Kd in assay [2] of 6.33 nM.

B11: B114P scFv displayed on yeast (scFv, V domains shown)
VH: QVQLVQSGAELKKPGSSVKISCKSSGYAFSSQWMNWVKQRPGQGLEWIGQIYPEDGDTHMNGKFKGKATLTADKSTSTAYMELSSLTSEDSAVYFCSSSNWDGSYWGQGTLVTVSS
VL: DVVMTQSPLSLPVTLGQPASISCKSSQSLLEEDGNTYLNWLQQRPGQSPRRLIYLVDRLDSGVPDRFSGSGSGTDFTLKISRVEAEDVGVYYCWQGTDLPQTFGGGTKVEIK
notes: as for B1
B11: the equilibrium dissociation constant (Kd) in assay [1] was 3.63 nM; in assay [2], 3.63 nM; in assay [3], 7.14 nM.

B12: D124P scFv displayed on yeast (scFv, V domains shown)
VH: QVQLVQSGAELKKPGSSVKISCKSSGYAFSSQWMNWVKQRPGQGLEWIGQIYPEDGDTHYNGKFKGKATLTADKSTSTAYMELSSLTSEDSAVYFCSSSNWVGSYWGQGTLVTVSS
VL: DVVMTQSPLSLPVTLGQPASISCKSSQSLLESDGNTYLNWLQQRPGQSPRRLIYLVDRLDSGVPDRFSGSGSGTDFTLKISRVEAEDVGVYYCWQGTDLPQTFGGGTKVEIK
notes: as for B1
As to B12, in assay [2], the Kd turned out to be 6.97 nM.

B13: B104P scFv displayed on yeast (scFv, V domains shown)
VH: QVQLVQSGAELKKPGSSVKISCKSSGYAFSSQWMNWVKQRPGQGLEWIGQIYPDDGDTHYNDKFKGKATLTADKSTSTAYMELSSLTSEDSAVYFCSSSNWVGSYWGQGTLVTVSS
VL: DVVMTQSPLSLPVTLGQPASISCKSSQSLLEADGNTYLNWLQQRPGQSPRRLIYLVDRLDSGVPDRFSGSGSGTDFTLKISRVEAEDVGVYYCWQGTDLPQTFGGGTKVEIK
notes: as for B1
Take B13: the dissociation constant Kd in assay [1] turned out to be 4.52 nM; in assay [2] it was 4.52 nM; in assay [3] it was 6.38 nM.

B14: G14P scFv displayed on yeast (scFv, V domains shown)
VH: QVQLVQSGAELKKPGSSVKISCKSSGYAFSSQWMNWVKQRPGQGLEWIGQIYPGDGDTHYNDKFKGKATLTADKSTSTAYMELSSLTSEDSAVYFCSSSNWVGSYWGQGTLVTVSS
VL: DVVMTQSPLSLPVTLGQPASISCKSSQSLLEEDGNTYLNWLQQRPGQSPRRLIYLVDRLDDGVPDRFSGSGSGTDFTLKISRVEAEDVGVYYCWQGTDLPQTFGGGTKVEIK
notes: as for B1
In assay [2], B14 had a dissociation constant Kd of 5.93 nM.

B15: F54P scFv displayed on yeast (scFv, V domains shown)
VH: QVQLVQSGAELKKPGSSVKISCKSSGYAFSSQWMNWVKQRPGQGLEWIGQIYPEDGDTHMNGKFKTKATLTADKSTSTAYMELSSLTSEDSAVYFCSSSNWVGSYWGQGTLVTVSS
VL: DVVMTQSPLSLPVTLGQPASISCKSSQSLLEEDGNTYLNWLQQRPGQSPRRLIYLVDRLDSGVPDRFSGSGSGTDFTLKISRVEAEDVGVYYCWQGTDLPQTFGGGTKVEIK
notes: as for B1
Take B15: the Kd in assay [1] is 4.09 nM; in assay [2], 4.09 nM; in assay [3], 5.66 nM.

B16: G24P scFv displayed on yeast (scFv, V domains shown)
VH: QVQLVQSGAELKKPGSSVKISCKSSGYAFSSNWMNWVKQRPGQGLEWIGQIYPEDGDTHYNDKFKGKATLTADKSTSTAYMELSSLTSEDSAVYFCSSSNWVGSYWGQGTLVTVSS
VL: DVVMTQSPLSLPVTLGQPASISCKSSQSLLESDGNTYLNWLQQRPGQSPRRLIYLVDRLDSGVPDRFSGSGSGTDFTLKISRVEAEDVGVYYCWQGTDLPQTFGGGTKVEIK
notes: as for B1
The molecule B16 gave a Kd in assay [2] of 5.79 nM.
